Laboratory results: patent US20170296617A1 (UNIVERSITY OF HOUSTON SYSTEM, published 2017)
No end group written: not given here. TAT = TAT cell-penetrating sequence fused at N-terminus

B1: TATpeptide25 (peptide25 with the TAT sequence fused at its N-terminal end) (peptide)
peptide: {TAT}-ERTYSPSTAVRS
notes: Synthetic peptide added to the cell culture medium

Columns and labels:
[1] = target: T1, ROCK2 (UniProt O75116 5-554, limits assumed); experiment: SPR (BiaCore), protein immobilized on CM-5 chip, peptide as analyte; no ROCK-II sensorgram is drawn
T1 construct: also called ROKa

[2] = target: T2, ROCK1 (UniProt Q13464 1-553, limits assumed); experiment: SPR (BiaCore), protein immobilized on CM-5 chip, peptide as analyte; the sheet does not say whether ROCK-I is ROCK1-553 or ROCK1-415
T2 construct: also called Rho-associated kinase 1; p160ROCK

[3] = target: T2, ROCK1; experiment: SPR (BiaCore, proteins immobilized on CM-5 chip)

T2 sequence (Q13464 1-553 limits assumed): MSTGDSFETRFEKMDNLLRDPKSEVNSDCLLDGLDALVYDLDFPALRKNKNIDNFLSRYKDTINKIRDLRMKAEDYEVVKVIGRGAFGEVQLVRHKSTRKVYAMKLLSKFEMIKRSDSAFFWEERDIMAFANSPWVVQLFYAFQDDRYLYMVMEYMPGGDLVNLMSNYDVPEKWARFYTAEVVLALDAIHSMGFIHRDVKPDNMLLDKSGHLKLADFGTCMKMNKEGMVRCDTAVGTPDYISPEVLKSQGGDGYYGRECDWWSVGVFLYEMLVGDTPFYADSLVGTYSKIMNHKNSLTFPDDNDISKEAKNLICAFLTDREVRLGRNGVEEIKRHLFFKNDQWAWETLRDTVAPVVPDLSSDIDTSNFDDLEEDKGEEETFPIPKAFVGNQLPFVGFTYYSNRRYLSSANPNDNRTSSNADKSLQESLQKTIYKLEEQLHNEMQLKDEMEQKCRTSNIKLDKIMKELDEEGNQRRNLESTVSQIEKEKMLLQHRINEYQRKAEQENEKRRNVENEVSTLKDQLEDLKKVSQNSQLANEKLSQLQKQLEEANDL
T1 sequence (O75116 5-554 limits assumed): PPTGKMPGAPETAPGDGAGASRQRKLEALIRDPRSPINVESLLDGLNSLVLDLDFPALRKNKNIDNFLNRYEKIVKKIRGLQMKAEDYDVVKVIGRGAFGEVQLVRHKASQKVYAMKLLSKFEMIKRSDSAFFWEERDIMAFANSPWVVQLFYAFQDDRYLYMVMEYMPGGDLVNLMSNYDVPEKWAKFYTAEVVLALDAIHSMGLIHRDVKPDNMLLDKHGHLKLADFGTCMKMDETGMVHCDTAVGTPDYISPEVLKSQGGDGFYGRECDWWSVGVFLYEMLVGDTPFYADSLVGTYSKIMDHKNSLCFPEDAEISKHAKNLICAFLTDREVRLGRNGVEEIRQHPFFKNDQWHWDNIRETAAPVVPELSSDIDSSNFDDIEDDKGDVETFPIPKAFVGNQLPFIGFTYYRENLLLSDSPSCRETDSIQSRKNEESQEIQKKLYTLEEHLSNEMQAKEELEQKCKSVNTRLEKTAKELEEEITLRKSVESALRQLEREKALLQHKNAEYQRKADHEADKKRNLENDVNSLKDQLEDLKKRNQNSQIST

Binder | Kd [1] [nM] | Kd [2] [nM] | Kd [3] [nM]
B1 | 5150 | 1450 | –
ERTYSPSTAVRS (also called PD2w-5; Pep25-4) [peptide25 (ERTYSPSTAVRS)] | – | – | 1500
